T1: TCRab on primary human T cells (human, UniProt P01848 1-140; P01850 1-176)
T1 construct: whole, on cells; T cells isolated from buffy coats; also called Primary hu T cells; human TCR
T1 TCR alpha (looked up): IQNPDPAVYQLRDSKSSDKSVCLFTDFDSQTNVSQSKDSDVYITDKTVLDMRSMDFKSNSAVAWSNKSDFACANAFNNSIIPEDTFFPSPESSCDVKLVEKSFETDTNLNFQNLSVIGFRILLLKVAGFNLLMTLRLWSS
T1 TCR beta (looked up): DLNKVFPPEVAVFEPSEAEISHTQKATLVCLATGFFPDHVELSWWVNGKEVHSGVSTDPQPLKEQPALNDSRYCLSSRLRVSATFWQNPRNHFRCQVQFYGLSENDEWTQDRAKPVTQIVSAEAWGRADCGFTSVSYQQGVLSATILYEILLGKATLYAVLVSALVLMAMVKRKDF

T2: cyno TCRab, in house produced (extracellular domains fused to a zipper peptide) (cynomolgus)
T2 construct: Numbering of the four differences is not explained; not shown: variable domains, if any; any residues beyond C131 of the beta chain
T2 alpha: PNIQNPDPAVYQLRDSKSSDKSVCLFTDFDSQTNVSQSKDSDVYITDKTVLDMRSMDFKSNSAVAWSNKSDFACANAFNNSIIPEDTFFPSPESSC
T2 beta: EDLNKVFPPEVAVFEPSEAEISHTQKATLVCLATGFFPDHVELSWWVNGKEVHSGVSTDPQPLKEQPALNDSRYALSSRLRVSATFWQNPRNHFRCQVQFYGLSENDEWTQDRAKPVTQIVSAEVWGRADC

B1: T017000698 (bispecific antibody)
chain: DVQLVESGGGVVQPGGSLRLSCVASGYVHKINFYGWYRQAPGKEREKVAHISIGDQTDYADSAKGRFTISRDESKNTVYLQMNSLRPEDTAAYYCRALSRIWPYDYWGQGTLVTVSSGGGGSGGGSEVQLVESGGGVVQPGGSLRLSCAASGFTFRSFGMSWVRQAPGKGPEWVSSISGSGSDTLYADSVKGRFTISRDNSKNTLYLQMNSLRPEDTALYYCTIGGSLSRSSQGTLVTVSSA
notes: Bivalent ISVD construct: anti-TCR and anti-albumin; also called TCE01-9GS-ALB23002-A
B2: A022600373 (bispecific antibody)
chain: DVQLVESGGGVVQPGGSLRLSCVASGYVHKINFYGWYRQAPGKEREKVAHISIGDQTDYADSAKGRFTISRDESKNTVYLQMNSLRPEDTAAYYCRALSRIWPYDYWGQGTLVTVSSGGGGSGGGGSGGGGSGGGGSEVQLVESGGGVVQPGGSLRLSCAASGFTFRSFGMSWVRQAPGKGPEWVSSISGSGSDTLYADSVKGRFTISRDNSKNTLYLQMNSLRPEDTALYYCTIGGSLSRSSQGTLVTVSSGGC
modifications: pHAb dye on the C-terminal GGC (degree of labeling 1)
notes: also called TCE01-20GS-ALB23002-GGC

Key:
[1] = molecular target: T3, TCRab on primary cyno T cells (cynomolgus); test: competition flow cytometry on cyno T cells, competitor T017000623 at EC30 (5E-08 M)
T3 construct: whole, on cells; also called Primary cy T cells; cyno TCR
Description: (§1) T cells (human T cells obtained as described in Example 3 and cyno T cells purchased from LPT laboratory, Germany) were thawed and counted on the day of the assay and diluted to a concentration of 1E+06 cells/mL, before adding 75 μL to the wells of a V-bottom 96-well plate (Greiner, cat no 651180). Cells were washed once with cold FACS buffer, before adding 25 μL Nb and 25 μL competitor to the wells. […] Cells were resuspended and plates were incubated at 4° C. for 90 minutes, after which plates were washed twice in cold FACS buffer. Cells were resuspended in 50 μl 1/1000 diluted Monoclonal ANTI-FLAG® M2 (Sigma Aldrich, cat no F1804) in FACS buffer and incubated at 4° C. for 30 minutes. Plates were washed twice in cold FACS buffer. […] Plates were washed twice in cold FACS buffer. Cells were resuspended in 55 μL 1/1000 diluted Propidium Iodide (Sigma-Aldrich, cat no P4170) in FACS buffer before acquiring data on the MACSQuant X (Miltenyi biotec).

[2] = molecular target: T1, TCRab on primary human T cells; test: competition flow cytometry on primary human T cells, competitor T017000624 at EC30 (2E-08 M)
Description: as §1

[3] = molecular target: T2, cyno TCRab, in house produced …; test: SPR ProteOn XPR36, TCRab immobilized by amine coupling, 1:1 model
Description: Recombinant TCR proteins were immobilized on a GLC Sensor Chip (Biorad) via amine coupling, using EDC and NHS chemistry (running buffer: HBS-EP+, pH 7.4). Purified ISVDs were injected for 2 minutes (flow rate 45 μL/min) at different concentrations (between 0.2 nM and 200 nM) and dissociation was followed for 900 s. Regeneration was performed by injecting 3 M MgCl₂ for 3 minutes (flow rate 90 μL/min). Data was double referenced by subtracting a reference ligand lane and a blank buffer injection. Processed sensorgrams were analyzed based on the 1:1 interaction model (Langmuir binding model) using ProteOn Manager 3.1.0 (Version 3.1.0.6) software.

[4] = molecular target: T4, human GPC3 on tumor cell lines (HepG2, Huh-7, NCI-H661, MKN-45, NCI-H23, BxPC-3, NCI-H292) (human, UniProt P51654 25-554); test: pHAb internalization assay on Huh-7 cells, flow cytometry (BD FACSArray, yellow laser); indirect readout that needs binding and uptake; concentration not given
T4 construct: Endogenous GPC3 of human cancer cell lines; also called GPC3 on HepG2; GPC3 on Huh-7
Description: The assay was read on a BD FACSArray with a yellow laser (pHAb: excitation maximum at 532 nm, emission maximum at 560 nm). The internalization rate was determined by quantifying the internalization at 37° C. at different timepoints (0.5 h, 3 h, 24 h and 48 h) compared to 4° C. at 0.5 h (Table 10, FIG. 8A).

| Binder | IC50 [1] | IC50 [2] | Kd [3] | binding result [4] |
| --- | --- | --- | --- | --- |
| B1 | 250 nM | 190 nM | 11 nM | – |
| B2 | – | – | – | no binding |
